We go through 83 variants from the RNAGym collection of RNA variant scans (doi:10.1073/pnas.2313332121).

To fix the notation:
B1: TPR t1 (parent)
chain: GACCAAUCUGCCCUCAGAGCUCGAGAACAUCUUCGGAUGCAGAGGAGGCAGGCUUCGGUGGCGCGAUAGCGCCAACGUCCUCAACCUCCAAUGCAUCCCACCACAUGAUGAUGCCUGAAGAGCCUUGGUUUUUUG

In this data set the parent is B1. Briefly: polymerase ribozyme fitness, log enrichment relative to wild type (log ratio); higher = more active; in vitro selection for triplet polymerase activity. The method in brief: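 A heterodimeric triplet polymerase ribozyme had each of its subunits mutagenized by PCR into a library, which was transcribed. One round of in vitro selection, done in triplicate, annealed each library with a biotinylated primer, its partner subunit and triplets, then incubated it frozen at −7 °C before gel excision of extended constructs, streptavidin-bead capture and RT-PCR. Fitness is the logarithm of genotype enrichment relative to wild-type enrichment, based on Illumina sequencing of inputs and outputs and inverse-variance-weighted replicate averages. A base-2 logarithm is used, and genotypes were kept only with ≥10 input reads and ≥1 read per output.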
Regarding G10U C15G G61A, the “polymerase ribozyme fitness (log ratio)” value is -1.63.
The figure for C11A C12G A27U G63U G77A is -5.74; for C11A C12U U38A G69C it is -2.89.
G10U C34U G44C U112C: the “polymerase ribozyme fitness (log ratio)” value was -5.
On to G10U G48U, for which the “polymerase ribozyme fitness (log ratio)” value is -0.243.
The result for G10U G36A reads -0.638.
For C11A A29U U59A C70A G120A, the “polymerase ribozyme fitness (log ratio)” value was -1.52.
In the case of C11A C13A C40U, the “polymerase ribozyme fitness (log ratio)” value was -3.65.
With G10U C20U U32A U125G, the “polymerase ribozyme fitness (log ratio)” value was -4.96.
On to G10U G47C C104U, for which the “polymerase ribozyme fitness (log ratio)” value is -1.69.
The result for G10U G77A C79U C94U reads -0.432; that for G10U C62A G71U G127C, -0.898; that for G10U G19C A37U C72A, -1.54.
The result for G10U C20A G42A G93U C115U reads -3.5; that for G10U G71A G120U, 1.24.
As to G10U C20A C56U, the “polymerase ribozyme fitness (log ratio)” value is -2.94.
The figure for C11A A74U is -2.52.
As for G10U G17U C56U U109A G110C A118G C123A, the “polymerase ribozyme fitness (log ratio)” value is -6.9.
For the variant C11A A16U C40U C56A, the “polymerase ribozyme fitness (log ratio)” value was -4.65.
The figure for G10U C72G A91G is -1.95; for G10U G48U G93A it is -1.17.
The result for C11A C12U G61U A100U reads -1.23; that for G10U C40G G52C C98U C123U, -2.05; that for C11A A91C, -2.43.
Take G10U C13G G45U C72A A91G C102A A118U C124G U132A U133C: the “polymerase ribozyme fitness (log ratio)” value is -3.66.
As for G10U U14A G113C G122A, the “polymerase ribozyme fitness (log ratio)” value is -3.62.
The result for G10U G45U reads -0.583; that for G10U C13U U38G C123A, 1.31; that for G10U U38G C70A C73U C123A U130G, -3.12.
The figure for G10U U54A is -1.28.
The result for C11A A50U reads -2.48; that for G10U G17U G45U C104U C124A, -1.08.
In the case of G10U G23A U30G U32A G35U G51A C70G, the “polymerase ribozyme fitness (log ratio)” value was -6.22.
The figure for G10U C40G G44C A111C is -4.09; for C11A C12U A37G C73U U78A U131A it is -0.943.
The figure for G10U C80U is -0.415.
In the case of G10U C22U G47A U96A C123A, the “polymerase ribozyme fitness (log ratio)” value is -5.89.
Consider G10U U14A U132A, for which the “polymerase ribozyme fitness (log ratio)” value was -1.64.
With C11A A29G C56G A91C U112A A121G G122C, the “polymerase ribozyme fitness (log ratio)” value was -1.75.
The figure for G10U C13G G120C is 1.66; for G10U C56A C73G it is -2.43.
Consider G10U C124U, for which the “polymerase ribozyme fitness (log ratio)” value was 1.37.
For the variant G10U G42A G45U, the “polymerase ribozyme fitness (log ratio)” value was -3.02.
The figure for C11A A37U G51U C56U A68U C98A U109A is -8.64; for G10U G39U it is -0.472; for G10U C115G it is -1.99.
G10U C115A: the “polymerase ribozyme fitness (log ratio)” value is -0.281.
Turning to G10U C15U A18U C49A C70U C80A G93U G117U, the “polymerase ribozyme fitness (log ratio)” value is -7.04.
The figure for G10U C56U G117C G122U is -3.32; for C11A C12A it is -1.15; for C11A C12U it is -0.179.
The figure for G10U C28U G63A is -4.31; for G10U G110U C114U it is -3.42.
Take G10U C40A C76G A83U C101A: the “polymerase ribozyme fitness (log ratio)” value was -3.85.
The figure for G10U G42A G61C is -5.15; for G10U U92G it is -3.71.
In the case of G10U U92C, the “polymerase ribozyme fitness (log ratio)” value was -0.873.
G10U U78C C86U G110A: the “polymerase ribozyme fitness (log ratio)” value is -1.98.
The result for G10U G17A C56G C62U C79U reads -4.53; that for G10U C34G G65U A66C C123U U125A G128U, -7.34; that for G10U C15G U21A A90G G93U G120C G135U, -3.07.
The result for G10U C85U reads -0.736.
The result for G10U C22A A119U reads -5.31; that for C11A C12G C73A C104U G120A, -1.09; that for G10U G61C, -1.82.
Regarding G10U C28U, the “polymerase ribozyme fitness (log ratio)” value was -2.12.
As for G10U G44A G52U G122A C123U C124G U130G, the “polymerase ribozyme fitness (log ratio)” value is -1.61.
The figure for G10U G71U C94A is -1.09; for G10U G69U U112G C123G it is 1.15.
The result for G10U C13U G48A G61A A83U C98U G117A reads -2.09; that for G10U G93A, -0.609.
For G10U C114A U125A G135U, the “polymerase ribozyme fitness (log ratio)” value is -3.39.
The result for G10U G42U C89U reads -1.96.
For the variant G10U G113C G120U A121C, the “polymerase ribozyme fitness (log ratio)” value is -2.24.
As for G10U C15A G61U A75C G117A, the “polymerase ribozyme fitness (log ratio)” value is -3.07.
The figure for G10U U59A G71U is -2.51; for G10U G120U it is 1.99.
On to G10U C22U C98U, for which the “polymerase ribozyme fitness (log ratio)” value is -5.53.
For the variant G10U G42U, the “polymerase ribozyme fitness (log ratio)” value was -2.78.
The figure for G10U U14A C40A is -2.63; for G10U C40G U96G it is -4.29.
Take G10U G60U U112A C114U: the “polymerase ribozyme fitness (log ratio)” value is -1.17.
Consider G10U C13G, for which the “polymerase ribozyme fitness (log ratio)” value worked out at 0.0488.
